How the values were obtained:
Assay in all cases: cell-based or functional assay
[1] = target: HIV-1 envelope of pseudovirus Ce1172_H1 (HIV-1)
[2] = target: HIV-1 Env of pseudovirus ZM109F.PB4 (HIV-1)
[3] = target: HIV-1 envelope of pseudovirus AC10.0.29 (HIV-1)
[4] = target: HIV-1 Env of pseudovirus A07412M1.vrc12 (HIV-1)
[5] = target: HIV-1 Env of pseudovirus Q259.d2.17 (HIV-1)
[6] = target: HIV-1 envelope of pseudovirus T257-31 (HIV-1)
[7] = target: HIV-1 envelope of pseudovirus CNE5 (HIV-1)
[8] = target: HIV-1 Env of pseudovirus 3016.v5.c45 (HIV-1)
[9] = target: HIV-1 envelope of pseudovirus T278-50 (HIV-1)
[10] = target: HIV-1 envelope of pseudovirus X1193_c1 (HIV-1)
[11] = target: HIV-1 envelope of pseudovirus T250-4 (HIV-1)
[12] = target: HIV-1 Env of pseudovirus Ce1086_B2 (HIV-1)
[13] = target: HIV-1 Env of pseudovirus Ce0393_C3 (HIV-1)
[14] = target: HIV-1 Env of pseudovirus 6041.v3.c23 (HIV-1)
[15] = target: HIV-1 envelope of pseudovirus HIV-16055-2.3 (HIV-1)
[16] = target: HIV-1 Env of pseudovirus CNE30 (HIV-1)
[17] = target: HIV-1 envelope of pseudovirus Ce0393_C3 (HIV-1)
[18] = target: HIV-1 Env of pseudovirus 246F C1G (HIV-1)
[19] = target: HIV-1 Env of pseudovirus 0815.v3.c3 (HIV-1)
[20] = target: HIV-1 Env of pseudovirus HIV-16055-2.3 (HIV-1)
[21] = target: HIV-1 Env of pseudovirus Ce0682_E4 (HIV-1)
[22] = target: HIV-1 Env of pseudovirus 9004SS_A3_4 (HIV-1)
[23] = target: HIV-1 Env of pseudovirus Q842.d12 (HIV-1)
[24] = target: HIV-1 Env of pseudovirus CNE8 (HIV-1)
[25] = target: HIV-1 Env of pseudovirus 89-F1_2_25 (HIV-1)
[26] = target: HIV-1 envelope of pseudovirus MS208.A1 (HIV-1)
[27] = target: HIV-1 Env of pseudovirus QH0692.42 (HIV-1)
[28] = target: HIV-1 envelope of pseudovirus CNE17 (HIV-1)
[29] = target: HIV-1 Env of pseudovirus CAP45.2.00.G3 (HIV-1)
[30] = target: HIV-1 envelope of pseudovirus 0260.v5.c36 (HIV-1)
[31] = target: HIV-1 envelope of pseudovirus SC422661.8 (HIV-1)
[32] = target: HIV-1 Env of pseudovirus YU-2 (HIV-1) (UniProt P35961)
[33] = target: HIV-1 Env of pseudovirus CAP210.2.00.E8 (HIV-1)
[34] = target: HIV-1 Env of pseudovirus 6545.v4.c1 (HIV-1)
[35] = target: HIV-1 Env of pseudovirus CNE19 (HIV-1)
[36] = target: HIV-1 envelope of pseudovirus BF1266.431a (HIV-1)
[37] = target: HIV-1 envelope of pseudovirus HIV-16845-2.22 (HIV-1)
[38] = target: HIV-1 Env of pseudovirus BJOX025000.01.1 (HIV-1)
[39] = target: HIV-1 envelope of pseudovirus 3103.v3.c10 (HIV-1)
[40] = target: HIV-1 Env of pseudovirus T257-31 (HIV-1)
[41] = target: HIV-1 envelope of pseudovirus P1981_C5_3 (HIV-1)
[42] = target: HIV-1 Env of pseudovirus CNE20 (HIV-1)
[43] = target: HIV-1 Env of pseudovirus BJOX028000.10.3 (HIV-1)
[44] = target: HIV-1 Env of pseudovirus 6244_13_85_4576 (HIV-1)
[45] = target: HIV-1 Env of pseudovirus RHPA4259.7 (HIV-1)
[46] = target: HIV-1 Env of pseudovirus 7030102001E5(Rev-) (HIV-1)
[47] = target: HIV-1 envelope of pseudovirus Du172.17 (HIV-1)
[48] = target: HIV-1 envelope of pseudovirus 249M B10 (HIV-1)
[49] = target: HIV-1 envelope spike of pseudovirus SS1196.1 (HIV-1)
[50] = target: HIV-1 envelope spike of pseudovirus SC422661.8 (HIV-1)

10-996 (antibody), sequence (VH): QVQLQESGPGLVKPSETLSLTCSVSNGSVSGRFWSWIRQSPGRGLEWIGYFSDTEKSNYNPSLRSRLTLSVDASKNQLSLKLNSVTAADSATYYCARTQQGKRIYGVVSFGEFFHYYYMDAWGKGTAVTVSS
10-996 (antibody), sequence (VL): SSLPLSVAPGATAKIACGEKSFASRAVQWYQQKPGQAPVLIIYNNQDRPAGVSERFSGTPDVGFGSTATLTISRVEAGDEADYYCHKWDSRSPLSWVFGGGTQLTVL
HIV-1 Env of pseudovirus YU-2 (HIV-1), sequence (P35961 32-843 limits assumed): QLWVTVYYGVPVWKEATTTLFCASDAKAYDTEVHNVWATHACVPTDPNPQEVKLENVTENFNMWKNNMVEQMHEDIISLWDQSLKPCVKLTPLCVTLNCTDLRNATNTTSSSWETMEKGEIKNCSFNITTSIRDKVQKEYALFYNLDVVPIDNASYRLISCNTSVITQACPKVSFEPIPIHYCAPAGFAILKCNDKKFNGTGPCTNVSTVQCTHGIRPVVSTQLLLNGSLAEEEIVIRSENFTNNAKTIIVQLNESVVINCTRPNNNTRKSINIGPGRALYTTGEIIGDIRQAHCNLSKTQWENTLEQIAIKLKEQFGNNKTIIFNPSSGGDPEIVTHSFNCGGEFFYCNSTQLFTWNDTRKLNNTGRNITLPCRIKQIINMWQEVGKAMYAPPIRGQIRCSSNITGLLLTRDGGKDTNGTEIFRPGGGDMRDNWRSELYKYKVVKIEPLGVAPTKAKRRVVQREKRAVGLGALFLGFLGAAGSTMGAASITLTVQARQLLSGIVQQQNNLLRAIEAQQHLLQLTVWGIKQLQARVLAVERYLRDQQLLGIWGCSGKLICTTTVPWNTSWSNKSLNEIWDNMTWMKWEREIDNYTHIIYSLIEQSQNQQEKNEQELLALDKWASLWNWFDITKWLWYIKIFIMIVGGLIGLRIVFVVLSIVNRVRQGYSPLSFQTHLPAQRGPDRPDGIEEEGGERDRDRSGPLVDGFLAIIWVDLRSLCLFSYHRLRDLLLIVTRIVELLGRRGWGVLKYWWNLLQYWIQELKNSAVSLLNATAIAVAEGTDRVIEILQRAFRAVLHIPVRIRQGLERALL

## 10-996 (antibody)
[1]
  IC50 (TZM-bl neutralization): 0.058 µg/mL
[2]
  IC80 (TZM-bl neutralization): > 50 µg/mL
[3]
  IC50 (TZM-bl neutralization): 0.067 µg/mL
[4]
  IC80 (TZM-bl neutralization): 0.07 µg/mL
[5]
  IC80 (TZM-bl neutralization): > 50 µg/mL
[6]
  IC50 (TZM-bl neutralization): > 50 µg/mL
[7]
  IC50 (TZM-bl neutralization): > 50 µg/mL
[8]
  IC80 (TZM-bl neutralization): > 50 µg/mL
[9]
  IC50 (TZM-bl neutralization): 14 µg/mL
[10]
  IC50 (TZM-bl neutralization): 0.144 µg/mL
[11]
  IC50 (TZM-bl neutralization): < 0.001 µg/mL
[12]
  IC80 (TZM-bl neutralization): > 50 µg/mL
[13]
  IC80 (TZM-bl neutralization): > 50 µg/mL
[14]
  IC80 (TZM-bl neutralization): > 50 µg/mL
[15]
  IC50 (TZM-bl neutralization): > 50 µg/mL
[16]
  IC80 (TZM-bl neutralization): 1.99 µg/mL
[17]
  IC50 (TZM-bl neutralization): > 50 µg/mL
[18]
  IC80 (TZM-bl neutralization): 0.27 µg/mL
[19]
  IC80 (TZM-bl neutralization): 0.251 µg/mL
[20]
  IC80 (TZM-bl neutralization): > 50 µg/mL
[21]
  IC80 (TZM-bl neutralization): > 50 µg/mL
[22]
  IC80 (TZM-bl neutralization): 0.05 µg/mL
[23]
  IC80 (TZM-bl neutralization): > 50 µg/mL
[24]
  IC80 (TZM-bl neutralization): > 50 µg/mL
[25]
  IC80 (TZM-bl neutralization): > 50 µg/mL
[26]
  IC50 (TZM-bl neutralization): > 50 µg/mL
[27]
  IC80 (TZM-bl neutralization): 1.85 µg/mL
[28]
  IC50 (TZM-bl neutralization): 4.04 µg/mL
[29]
  IC80 (TZM-bl neutralization): > 50 µg/mL
[30]
  IC50 (TZM-bl neutralization): 0.16 µg/mL
[31]
  IC50 (TZM-bl neutralization): 0.173 µg/mL
[32]
  IC80 (TZM-bl neutralization): 0.891 µg/mL
[33]
  IC80 (TZM-bl neutralization): > 50 µg/mL
[34]
  IC80 (TZM-bl neutralization): > 50 µg/mL
[35]
  IC80 (TZM-bl neutralization): > 50 µg/mL
[36]
  IC50 (TZM-bl neutralization): > 50 µg/mL
[37]
  IC50 (TZM-bl neutralization): 1.32 µg/mL
[38]
  IC80 (TZM-bl neutralization): > 50 µg/mL
[39]
  IC50 (TZM-bl neutralization): 0.053 µg/mL
[40]
  IC80 (TZM-bl neutralization): > 50 µg/mL
[41]
  IC50 (TZM-bl neutralization): 0.005 µg/mL
[42]
  IC80 (TZM-bl neutralization): < 0.001 µg/mL
[43]
  IC80 (TZM-bl neutralization): > 50 µg/mL
[44]
  IC80 (TZM-bl neutralization): 1.3 µg/mL
[45]
  IC80 (TZM-bl neutralization): 0.163 µg/mL
[46]
  IC80 (TZM-bl neutralization): 0.044 µg/mL
[47]
  IC50 (TZM-bl neutralization): 0.173 µg/mL
[48]
  IC50 (TZM-bl neutralization): > 50 µg/mL
[49]
  IC50 (TZM-bl neutralization assay): 0.007 µg/mL
  IC80 (TZM-bl neutralization assay): 0.04 µg/mL
[50]
  IC50 (TZM-bl neutralization assay): 0.255 µg/mL
  IC80 (TZM-bl neutralization assay): 0.845 µg/mL
